From patent publication US20250382344A1, “Soluble GLP1/GIP/NPY2 Receptor Triple Agonists” (Boehringer Ingelheim International GmH, priority 2024, published 2025)
Where a chain is given by its changes, count along the chain named. Values belong to the binder of their own block, whether it stands above or below them.

How the values were obtained:
Experiment in all cases: cell-based or functional assay
human GIP receptor = target: T1, human GIP receptor (human, UniProt P48546 22-466)
T1 sequence (looked up): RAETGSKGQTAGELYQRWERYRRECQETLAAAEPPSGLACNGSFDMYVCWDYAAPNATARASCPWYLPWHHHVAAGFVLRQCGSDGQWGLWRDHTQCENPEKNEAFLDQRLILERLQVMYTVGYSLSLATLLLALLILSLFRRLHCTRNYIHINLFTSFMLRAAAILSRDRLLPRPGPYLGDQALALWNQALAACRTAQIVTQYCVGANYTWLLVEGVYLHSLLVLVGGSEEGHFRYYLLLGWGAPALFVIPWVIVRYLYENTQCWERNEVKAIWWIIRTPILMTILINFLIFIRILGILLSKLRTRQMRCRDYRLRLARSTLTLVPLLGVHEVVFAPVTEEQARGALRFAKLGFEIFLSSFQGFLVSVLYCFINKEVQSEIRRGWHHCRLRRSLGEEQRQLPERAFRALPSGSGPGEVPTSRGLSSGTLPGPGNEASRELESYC

[1] = target: T2, human neuropeptide Y2 receptor (human, UniProt P49146 1-381)
T2 sequence (looked up): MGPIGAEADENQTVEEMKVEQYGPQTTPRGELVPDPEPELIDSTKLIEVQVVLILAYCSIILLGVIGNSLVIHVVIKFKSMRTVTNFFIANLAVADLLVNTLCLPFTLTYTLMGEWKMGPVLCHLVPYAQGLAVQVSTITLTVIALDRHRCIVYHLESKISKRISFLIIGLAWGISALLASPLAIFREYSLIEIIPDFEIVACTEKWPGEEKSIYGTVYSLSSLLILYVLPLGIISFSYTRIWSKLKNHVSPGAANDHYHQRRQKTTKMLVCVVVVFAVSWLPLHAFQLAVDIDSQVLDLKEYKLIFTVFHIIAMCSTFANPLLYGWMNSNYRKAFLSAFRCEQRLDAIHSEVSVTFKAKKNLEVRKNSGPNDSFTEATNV

human GLP-1 receptor = human GLP-1 receptor (human, UniProt P43220 24-463)

EC50, CreLuc luciferase reporter assay, hGIPR 0.5% hP (human GIP receptor): 0.4 nM | EC50, CreLuc luciferase reporter assay, hNPY2R 0.5% hP [1]: 9.9 nM | EC50, CreLuc luciferase reporter assay, hNPY2R 100% hP [1]: 95.3 nM
B1: Compound 171 (peptide)
peptide: YXEGTFTSDYSIXLERQAQXAFVRHLINKXTRQRY
modifications: Aib at positions 2, 13, 20 and 30; Lys 29 epsilon-amino group carries C20DA-gGlu-gGlu-gGlu-gGlu-gGlu-gGlu-eLys; C-terminal amide

EC50, CreLuc luciferase reporter assay, hNPY2R 100% hP [1]: 457 nM
B2: Compound 176 (peptide)
peptide: B1 peptide with R16K
modifications: Aib at positions 2, 13, 20 and 30; Lys 29 epsilon-amino group carries C20DA-gGlu-gGlu-gGlu-gGlu-gGlu; C-terminal amide

EC50, CreLuc luciferase reporter assay, hGLP1R 0.5% hP (human GLP-1 receptor): 0.2 nM | EC50, CreLuc luciferase reporter assay, hGIPR 0.5% hP (human GIP receptor): 0.7 nM | EC50, CreLuc luciferase reporter assay, hGIPR 100% hP (human GIP receptor): 20.1 nM | EC50, CreLuc luciferase reporter assay, hNPY2R 0.5% hP [1]: 7.3 nM | EC50, CreLuc luciferase reporter assay, hNPY2R 100% hP [1]: 55.5 nM
B3: Compound 173 (peptide)
peptide: B1 peptide with E15D, R16K, I27L
modifications: Aib at positions 2, 13, 20 and 30; Lys 29 epsilon-amino group carries C18DA-gGlu-gGlu-gGlu-gGlu-gGlu-gGlu-eLys; C-terminal amide

EC50, CreLuc luciferase reporter assay, hGIPR 0.5% hP (human GIP receptor): 1.7 nM | EC50, CreLuc luciferase reporter assay, hGIPR 100% hP (human GIP receptor): 19.8 nM | EC50, CreLuc luciferase reporter assay, hNPY2R 0.5% hP [1]: 52.7 nM | EC50, CreLuc luciferase reporter assay, hNPY2R 100% hP [1]: 136 nM
B4: Compound 172 (peptide)
peptide: B1 peptide with R16K, X30W
modifications: Aib at positions 2, 13 and 20; Lys 29 epsilon-amino group carries C18DA-gGlu-gGlu-gGlu-gGlu-gGlu-gGlu-eLys; C-terminal amide
